# Data taken from patent publication US20120277143A1 (Janssen / Centocor, published 2012).
# How the values were obtained:
# human IL13 [1] = molecular target: T1, human IL13 (human, UniProt P35225 35-146, biotinylated in the SPR assays (sites not given)); test: cell-based or functional assay
# human IL13 [2] = molecular target: T1, human IL13; test: SPR BIAcore, biotin-IL13 on SA chip, global fit
# Protocol: Recombinant human IL13 (Peprotech) was minimally biotinylated on ice using sulfo-NHS-LCLC-Biotin and desalted into the experimental running buffer containing 10 mM HEPES, 150 mM NaCl, pH 7.4, 0.01% Tween-20, and 0.1 mg/mL BSA. Biotinylated IL13 was captured at three different surface densities (from about 150, 50, and 25 RU) onto three different BIAcore SA (streptavidin) sensor chips. Each binding protein sample was tested at 40 nM as the highest concentration in a 3-fold dilution series over the three different density IL13 surfaces. The dissociation phase for the highest concentration of the binding protein sample was monitored for one hour. The response data from each of the different density surfaces was globally fitted in order to extract estimates of the kinetic and affinity constants which are provided in Table 7 below.
# human IL13 [3] = molecular target: T1, human IL13; test: SPR ProteOn, biotin-hIL13 on streptavidin, 1:1 global fit
# Protocol: Complete kinetic data describing binding of various engineered binding protein molecules to human IL13 was measured using a method similar to that described above for the single point affinity analysis. Briefly, streptavidin (Pierce) was immobilized to similar levels (˜1800 RUs) on all six channels of a ProteOn GLC chip via amine coupling (pH 5.0). Biotinylated hIL13 was captured at different surface densities (600˜100 RUs) on different channels. Protein binding was tested starting at 40 nM diluted in a 3-fold concentration series over the different density IL13 surfaces; a buffer sample was injected to monitor the baseline stability. Dissociation phases for all concentrations of each binding protein sample were monitored for one hour at a flow rate of 100 μl/min. Response data for all concentration series from the different density surfaces were globally fit to a 1:1 simple langmuir binding model to extract values of the kinetic (kₒₙ, koff) and affinity (KD) constants provided in Table 16.
# cyno IL13 = cyno IL13 (cynomolgus monkey, UniProt Q0PW92 21-132); test: cell-based or functional assay
# human IL13 R130Q = molecular target: T2, human IL13 R130Q (human, UniProt P35225 35-146, biotinylated (sites not given)); test: Luminex competition, 80 pM biotin-IL13 R130Q binding to IL13Ra2-Fc beads
# T2 construct: Peprotech; also called IL13R13Q; R111Q
# Protocol: Binding protein inhibition of IL13 binding to Rα2 was assessed using IL13Rα2-Fc (R&D Systems) conjugated to carboxylated Luminex microspheres according to the manufacturer's protocol. For biotinylation of IL13, recombinant human IL13 R130Q (Peprotech) was biotinylated at a 4:1 ratio using EZ-Link NHS-LC-Biotin (Pierce, #21336) for 2 hours at RT. The protein was dialyzed in PBS overnight to remove excess biotinylation reagent. For neutralization experiments, 5000 IL13 Rα2-Fc conjugated beads in 50 μl were added to each well of a 96-well filter plate (Millipore). 50 μl of biotinylated human IL13 at 1 ng/ml (80 pM) was mixed with an appropriate dilution of binding protein in Luminex Assay Buffer (PBS, 1% BSA, pH 7.4). The plate was incubated for 1 hour at RT in the dark on a plate shaker, set to shake vigorously to avoid bead aggregation. The plate was washed 3 times with 150 μl of wash buffer (PBS, 1% BSA, pH 7.4, 0.05% Tween-20) using a vacuum manifold followed by the addition of 50 μl of Streptavidin PE at 25 μg/ml and incubated at RT for 20 minutes. The plates were washed again and 100 μl of sheath fluid was added and the plate was placed on the shaker for 1 minute. Plates were read using a Luminex® 100 system; data were plotted as a function of binding protein concentration. IC₅₀ values were determined by fitting the data to the equation for sigmoidal dose response using PRIZM software (GraphPAD PRIZM).
# T1 sequence (P35225 other isoform, or with tags, fused parts or gaps limits assumed): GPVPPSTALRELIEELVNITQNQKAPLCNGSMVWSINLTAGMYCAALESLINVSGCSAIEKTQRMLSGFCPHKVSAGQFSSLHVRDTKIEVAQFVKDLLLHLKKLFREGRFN
# cyno IL13, sequence (Q0PW92 entry or part of it): as the sequence (P35225 other isoform, or with tags, fused parts or gaps limits assumed) above, with G1S, R10K, M42V, S67N, H83R, L100V, R110Q counted along it
# T2 sequence (P35225 35-146 limits assumed, stated change not applied): as the sequence (P35225 other isoform, or with tags, fused parts or gaps limits assumed) above, with R110Q counted along it
Binder,STAT6 Phospho IC50 (human IL13 [1]) [nM],Kd (human IL13 [2]) [nM],koff (human IL13 [2]) [s⁻¹],kon (human IL13 [2]) [M⁻¹ s⁻¹],Kd (human IL13 [3]) [nM],TARC expression IC50 (human IL13 [1]) [nM],Cyno IL13 STAT6 IC50 (cyno IL13) [nM],IC50 (human IL13 R130Q) [nM]
"9F8 (designed binder, ankyrin repeat protein) DLGKKLLEAARAGQDDEVRILMANGADVNASDIFGSTPLHLAARHGHLEIVEVLLKYGADVNAMDFIGDTPLHLAAYRGHLEIVEVLLKYGVDVNADDHGDTPLHLAASMGHLEIVEVLLKNGADVNAQDKFGKTAFDISIDNGNEDLAEILQKLN",0.055,0.11,9.9e-05,930000,0.00164,,,
"5B9 (designed binder, N-Cap-(AR)3-C-Cap) DLGKKLLEAARAGQDDEVRILMANGADVNATDVFGSTPLHLAARHGHLEIVEVLLKHGADVNATDFIGDTPLHLAAYHGHLEIVEVLLKHGADVNAKNGETPLHLAAYHGHPDIVEVLLKHGADVNAQDKFGKTAFDISIDNGNEDLAEILQKLN",0.0165,0.169,0.000179,1.06e+06,,0.372,0.653,0.0134
"6G11 (designed binder, N-Cap-(AR)3-C-Cap) DLGKKLLEAARAGQDDEVRILMANGADVNAEDILGITPLHLAAHHGHLEIVEVLLKHGADVNANDFAGYTPLHLAAVYGHLEIVEVLLKYGADVNATDAWGETPLHLAAYTGHLEIVEVLLKHDADVNAQDKFGKTAFDISIDNGNEDLAEILQKLN",0.0198,0.106,8e-05,754000,,0.282,1.21,0.0101
"9E11 (designed binder, N-Cap-(AR)3-C-Cap) DLGKKLLEAARAGQDDEVRILMANGADVNASDIYGSTPLHLAARHGHLEIVEVLLKNGADVNANDMIGDTPLHLAAYHGHLEIVEVLLKHGADVNASDITGETPLHLAAHNGHLEIVEVLLKYGADVNAQDKFGKTAFDISIDNGNEDLAEILQKLN",0.0009,0.021,1.3e-05,640000,,0.109,0.0334,0.0058
"10A6 (designed binder, N-Cap-(AR)2-C-Cap, only 2 ARs) DLGKKLLEAARAGQDDEVRILMANGADVNAIDHFDSTPLHLAARHGHLEIVEVLLKNGADVNADDFLGDTPLHLAAYHGHLDIVEVLLKHGADVNAQDKFGKTAFDISIDNGNEDLAEILQKLN",0.008,0.0729,0.000201,2.76e+06,,0.123,1.93,0.0075
"7D7 (designed binder, N-Cap-(AR)3-C-Cap) DLGKKLLEAARAGQDDEVRILMANGADVNATDTYGSTPLHLAARHCHQEIVEVLLKHGADVNANDFIGDTPLHLAAWHGHLEIVEVLLKNGADVNAMDVTGETPLHLAAYHGHLDIVEVLLKNGADVNAQDKFGKTAFDISIDNGNEDLAEILQKLN",0.0105,0.204,6.25e-05,,,0.354,0.162,0.058
